Assay results from patent US20130203167A1 (SYRACUSE UNIVERSITY, published 2013).

Target: full-length WDR5 (UniProt P61964 2-334)
Assay: method not stated; ITC with full-length WDR5 by the Methods

B1: Win motif peptide EHVTGCARSEGFYT (SEQ ID NO. 33) (peptide)
peptide: Ac-EHVTGCARSEGFYT-NH2
Kd: 116 nM

B2: Win motif peptide EHQTGSARSEGYYP (SEQ ID NO. 32) (peptide)
peptide: Ac-EHQTGSARSEGYYP-NH2
Kd: 415 nM

B3: Win motif peptide LNPHGAARAEVYLR (SEQ ID NO. 31) (peptide)
peptide: Ac-LNPHGAARAEVYLR-NH2
Kd: 52 nM

B4: Win motif peptide INPTGCARSEPKIL (SEQ ID NO. 29) (peptide)
peptide: Ac-INPTGCARSEPKIL-NH2
Kd: 78 nM

B5: Win motif peptide VNPTGCARSEPKMS (SEQ ID NO. 30) (peptide)
peptide: Ac-VNPTGCARSEPKMS-NH2
Kd: 47 nM
